{"source": "patent US20250051437A1", "about": "(University of California, published 2025)", "binders": {"B1": {"name": "07-0653-h43-VC-PAB-MMAE (antibody, human IgG1, DAR about 4, V domains shown)", "VH": "QVQLVQSGAEVKKPGASVKVSCKASGYTFTDYYMNWVRQAPGQGLEWMGVIYPYSGGIGYAQKFQGRVTMTVDKSTSTAYMELSSLRSEDTAVYYCARGRGDYFGLFDFWGQGTTVTVSS", "VL": "DIQLTQSPSSLSASVGDRVTITCRATSSLSYIHWYQQKPGKAPKPLIYEISKLASGVPSRFSGSGSGTDYTLTISSLQPEDFATYYCQQWNYPFTFGQGTKLEIK", "modifications": "MC-VC-PAB-MMAE on free thiols of cysteines from reduced interchain disulfides; positions not given; MC-VC-PAB-MMAE on free thiols of cysteines from reduced interchain disulfides; average 4 MMAE per antibody; positions not given", "notes": "also called CDH17-ADC-653-h43; 07-0653-h43-MMAE"}, "B2": {"name": "07-0646-h7scFv anti-CDH17 scFv (scFv)", "scFv": "DIQLTQSPSSLSASVGDRVTMTCRASSSVSSSYLHWYQQKPGKAPKLLIYSTSNLASGVPSRFSGSGSGTDYTLTISSVQPEDFATYYCQQYDSSPSTFGQGTKLEIKGGGGSGGGGSGGGGSQVQLVQSGAEVKKPGASVKMSCKASGYTFTSYNMHWVRQAPGQGLEWIGAIYPGNGDTSYAQKFQGRATLTVDTSTSTAYMELSSLRSEDTAVYYCARGRGRYFEYWGQGTTLTVSSHHHHHH", "notes": "VL-linker-VH; also called CDH17-646-h7scfv; 07-0646-7scFv"}, "B3": {"name": "07-0653-h43scFv anti-CDH17 scFv (scFv)", "scFv": "DIQLTQSPSSLSASVGDRVTITCRATSSLSYIHWYQQKPGKAPKPLIYEISKLASGVPSRFSGSGSGTDYTLTISSLQPEDFATYYCQQWNYPFTFGQGTKLEIKGGGGSGGGGSGGGGSQVQLVQSGAEVKKPGASVKVSCKASGYTFTDYYMNWVRQAPGQGLEWMGVIYPYSGGIGYAQKFQGRVTMTVDKSTSTAYMELSSLRSEDTAVYYCARGRGDYFGLFDFWGQGTTVTVSSHHHHHH", "notes": "VL-linker-VH; also called CDH17-653-h43scfv"}, "B4": {"name": "humanized anti-CDH17 antibody 07-0646-h7 (antibody, human IgG1, V domains shown)", "VH": "QVQLVQSGAEVKKPGASVKMSCKASGYTFTSYNMHWVRQAPGQGLEWIGAIYPGNGDTSYAQKFQGRATLTVDTSTSTAYMELSSLRSEDTAVYYCARGRGRYFEYWGQGTTLTVSS", "VL": "DIQLTQSPSSLSASVGDRVTMTCRASSSVSSSYLHWYQQKPGKAPKLLIYSTSNLASGVPSRFSGSGSGTDYTLTISSVQPEDFATYYCQQYDSSPSTFGQGTKLEIK", "notes": "C-terminal lysine kept in the humanized antibodies; also called CDH17-646-h7; 07-646-h7"}, "B5": {"name": "07-0646-h7-VC-PAB-MMAE (antibody, human IgG1, DAR about 4, V domains shown)", "VH": "B4 VH", "VL": "B4 VL", "modifications": "MC-VC-PAB-MMAE on free thiols of cysteines from reduced interchain disulfides; positions not given; MC-VC-PAB-MMAE on free thiols of cysteines from reduced interchain disulfides; average 4 MMAE per antibody; positions not given", "notes": "also called CDH17-ADC-646-h7; 07-0646-h7-MMAE"}, "B6": {"name": "07-0663-h7scFv anti-CDH17 scFv (scFv)", "scFv": "DIQMTQSPSSLSASVGDRVTITCRVSSIISSSKLHWYQQKPGKAPKPLIYGTSTLASGVPSRFSGSGSGTDYTLTISSLQPEDFATYYCQQWSNYPFTFGQGTKLEIKGGGGSGGGGSGGGGSQVQLVQSGAEVKKPGSSVKISCKVSGYTFTDHTIHWMRQAPGQGLEWIGYIFPRDDIVVYAQKFQGRATLTADKSTSTAYMELSSLRSEDTAVYYCARPPYYYSRNFYFDYWGQGTTLTVSSHHHHHH", "notes": "VL-linker-VH"}, "B7": {"name": "07-0663-h7-VC-PAB-MMAE (antibody, human IgG1, kappa, DAR about 4, V domains shown)", "VH": "QVQLVQSGAEVKKPGSSVKISCKVSGYTFTDHTIHWMRQAPGQGLEWIGYIFPRDDIVVYAQKFQGRATLTADKSTSTAYMELSSLRSEDTAVYYCARPPYYYSRNFYFDYWGQGTTLTVSS", "VL": "DIQMTQSPSSLSASVGDRVTITCRVSSIISSSKLHWYQQKPGKAPKPLIYGTSTLASGVPSRFSGSGSGTDYTLTISSLQPEDFATYYCQQWSNYPFTFGQGTKLEIKR", "modifications": "MC-VC-PAB-MMAE on free thiols of cysteines from reduced interchain disulfides; positions not given; MC-VC-PAB-MMAE on free thiols of cysteines from reduced interchain disulfides; average 4 MMAE per antibody; positions not given"}}, "key": {"[1]": {"biological_target": "T1, human cadherin-17 (CDH17), endogenously expressed on human cancer cell lines (LS513, SNU-C1, PaTu8988s, … (human, UniProt Q12864 23-832))", "T1 construct": "also called LS513 (Colon, CDH17+); HPAF2", "test": "flow cytometry of the ADC on LS513 cells (CDH17+), 20 µg/ml"}, "[2]": {"biological_target": "T1, human cadherin-17 (CDH17), endogenously …", "test": "indirect flow cytometry (iQue) on LS513 cells (CDH17+), anti-His secondary antibody", "procedure": "Bispecific antibodies and scFv fragments were assessed for their binding effect to CDH17 positive cells by an indirect flow cytometry assay iQue® (Sartorius, Gottingen, Germany). The asssays were performed with CDH17 positive LS513 cells or CDH17 negative M202 cells using the primary antibody and fluorochrome-labeled anti-His secondary antibody using the iQue® where FL4-H values acquired by iQue® software were reported."}, "[3]": {"biological_target": "T1, human cadherin-17 (CDH17), endogenously …", "test": "KinExA, cell-based, SNUC1 cells"}, "[4]": {"biological_target": "T2, recombinant CDH17 extracellular domain (ECD) with 6x His tag (human, UniProt Q12864 23-787)", "T2 construct": "also called Recombinant CDH17 ECD-6xhis tag", "test": "ELISA on recombinant CDH17 ECD-6xHis"}, "[5]": {"biological_target": "T1, human cadherin-17 (CDH17), endogenously …", "test": "flow cytometry (iQue) on LS513 cells, 1 µg Ab"}, "[6]": {"biological_target": "T1, human cadherin-17 (CDH17), endogenously …", "test": "flow cytometry (iQue) on SNUC1 cells, 1 µg Ab"}, "[7]": {"biological_target": "T3, human CDH17-mGFP fusion protein overexpressed on HEK293T cells (clone G11) (human, UniProt Q12864 23-832)", "T3 construct": "also called HEK293T CDH17mGFP Clone G11; HEK293T Human CDH17mGFP G11; not shown: mGFP fluorescent protein fused to CDH17", "test": "KinExA, cell-based, HEK293T CDH17mGFP clone G11", "procedure": "(§1) The cell-based antibody affinity (KD) of the anti-CDH17 antibodies was measured by KinExA 4000 (Sapidyne Instrument, Boise, Idaho). Briefly, HEK293T overexpressing CDH17-fluorescent protein fusion (i.e., human CDH17-mGFP, monkey CDH17-mGFP, mouse CDH17-mGFP or rat CDH17-mGFP) were detached with Versene and equilibrated with either 50 pM, 200 pM, 20 nM, or 50 nM antibody in 2% FBS/DMEM at 4° C. overnight. The cell concentration started at 5×10⁶ cells/mL or 1×10⁷ cells/mL and 2-fold serial dilutions were performed up to 10 points. The next day, the cells were centrifuged at 1500 rpm for 10 min and the supernatants were saved. […] In contrast, while the humanized anti-CDH17 antibody, 07-0653-h43, fails to bind mouse CDH17 protein, it binds rat CDH17 protein equally well as to human and monkey CDH17 protein such that its Kp is less than about 1 nM for human, monkey and rat CDH17 proteins with overlapping 95% confidence interval values."}, "[8]": {"biological_target": "T1, human cadherin-17 (CDH17), endogenously …", "test": "flow cytometry (iQue) on LS513 cells, 0.2 µg Ab"}, "[9]": {"biological_target": "T1, human cadherin-17 (CDH17), endogenously …", "test": "flow cytometry (iQue) on SNUC1 cells, 0.2 µg Ab"}, "[10]": {"biological_target": "T1, human cadherin-17 (CDH17), endogenously …", "test": "flow cytometry on LS513 cells (CDH17+), 20 µg/ml"}, "[11]": {"biological_target": "T1, human cadherin-17 (CDH17), endogenously …", "test": "flow cytometry (iQue) on PATU8988S cells, 1 µg Ab"}, "[12]": {"biological_target": "T1, human cadherin-17 (CDH17), endogenously …", "test": "flow cytometry (iQue) on PATU8988S cells, 0.2 µg Ab"}, "[13]": {"biological_target": "T3, human CDH17-mGFP fusion protein …", "test": "flow cytometry on HEK293T human CDH17mGFP G11, 20 µg/ml"}, "[14]": {"biological_target": "T4, mouse CDH17-mGFP fusion protein overexpressed on HEK293T cells (mouse, UniProt Q9R100 26-827)", "T4 construct": "also called HEK293T Mouse CDH17mGFP mass; not shown: mGFP fluorescent protein", "T4 sequence (Q9R100 26-827)": "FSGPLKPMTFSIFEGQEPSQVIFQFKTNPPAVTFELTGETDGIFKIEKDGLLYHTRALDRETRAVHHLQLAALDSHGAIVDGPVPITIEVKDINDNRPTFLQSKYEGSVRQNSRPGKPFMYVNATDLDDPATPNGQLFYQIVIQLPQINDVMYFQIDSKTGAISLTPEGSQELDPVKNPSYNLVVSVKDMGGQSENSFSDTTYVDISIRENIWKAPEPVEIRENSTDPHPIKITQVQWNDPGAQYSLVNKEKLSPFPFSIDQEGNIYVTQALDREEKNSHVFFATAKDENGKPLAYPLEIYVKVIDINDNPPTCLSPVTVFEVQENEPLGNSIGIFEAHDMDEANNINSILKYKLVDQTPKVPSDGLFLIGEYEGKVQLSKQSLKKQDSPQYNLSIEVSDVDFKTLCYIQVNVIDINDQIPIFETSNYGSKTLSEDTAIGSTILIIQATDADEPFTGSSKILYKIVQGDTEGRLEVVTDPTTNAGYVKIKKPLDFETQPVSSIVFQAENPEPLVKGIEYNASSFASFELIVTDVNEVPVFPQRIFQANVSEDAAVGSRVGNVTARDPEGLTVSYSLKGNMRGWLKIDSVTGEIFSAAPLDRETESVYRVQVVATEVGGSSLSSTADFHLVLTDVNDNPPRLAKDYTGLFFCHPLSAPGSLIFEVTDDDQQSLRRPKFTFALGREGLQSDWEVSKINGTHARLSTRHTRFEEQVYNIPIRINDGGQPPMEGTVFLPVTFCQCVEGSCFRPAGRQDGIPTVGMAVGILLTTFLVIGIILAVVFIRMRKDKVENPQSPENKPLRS", "test": "flow cytometry (BD C6) on HEK293T Mouse CDH17 mGFP cells", "procedure": "(§2) To determine relative antigen binding strengths of the humanized antibodies, FACS assays were carried out as essentially described in Example 1. […] Using a BD Biosciences Accuri™ C6 Flow Cytometer (San Jose, CA), antibody binding based on Alexa Fluor® 647 fluorescence was measured in the FL4-H channel and fusion protein overexpression based on GFP fluorescence was measured in the FL1-H channel."}, "[15]": {"biological_target": "T5, rat CDH17 fused to moxGFP, overexpressed on HEK293T cells (rat, UniProt P55281 22-827)", "T5 construct": "whole, on cells; also called HEK293T Rat CDH17mGFP mass pop; rat CDH17-moxGFP", "T5 sequence (P55281 22-827)": "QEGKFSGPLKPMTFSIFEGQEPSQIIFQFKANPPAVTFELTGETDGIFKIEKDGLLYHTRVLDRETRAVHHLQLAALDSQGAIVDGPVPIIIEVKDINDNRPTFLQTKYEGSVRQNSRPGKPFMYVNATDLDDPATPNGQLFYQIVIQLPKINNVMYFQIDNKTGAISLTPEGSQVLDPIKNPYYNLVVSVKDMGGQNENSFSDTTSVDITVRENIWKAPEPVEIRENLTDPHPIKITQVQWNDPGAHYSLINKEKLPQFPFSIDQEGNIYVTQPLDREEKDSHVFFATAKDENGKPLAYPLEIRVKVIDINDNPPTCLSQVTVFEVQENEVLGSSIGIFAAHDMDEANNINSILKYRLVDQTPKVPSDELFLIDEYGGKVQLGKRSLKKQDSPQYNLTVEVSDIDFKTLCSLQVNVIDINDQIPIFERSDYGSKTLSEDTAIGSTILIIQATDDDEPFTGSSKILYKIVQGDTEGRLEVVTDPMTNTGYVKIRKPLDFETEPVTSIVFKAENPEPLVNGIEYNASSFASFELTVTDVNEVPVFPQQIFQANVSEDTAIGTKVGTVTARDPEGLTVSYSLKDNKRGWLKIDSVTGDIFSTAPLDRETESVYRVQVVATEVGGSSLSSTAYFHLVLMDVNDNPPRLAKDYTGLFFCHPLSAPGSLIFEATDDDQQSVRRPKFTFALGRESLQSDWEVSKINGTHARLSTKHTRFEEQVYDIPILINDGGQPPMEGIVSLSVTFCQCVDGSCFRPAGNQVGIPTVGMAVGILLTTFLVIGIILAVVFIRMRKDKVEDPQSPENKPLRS", "test": "flow cytometry (BD C6) on HEK293T Rat CDH17 moxGFP cells", "procedure": "as §2"}, "[16]": {"biological_target": "T3, human CDH17-mGFP fusion protein …", "test": "KinExA, cell-based, HEK293T overexpressing human CDH17-mGFP (FIG. 16)", "procedure": "as §1"}, "[17]": {"biological_target": "T5, rat CDH17 fused to moxGFP, …", "test": "flow cytometry on HEK293T rat CDH17mGFP mass population, 20 µg/ml"}, "[18]": {"biological_target": "T3, human CDH17-mGFP fusion protein …", "test": "KinExA, cell-based, HEK293T human CDH17mGFP G11 (same value as r12)", "procedure": "as §1"}, "[19]": {"biological_target": "T4, mouse CDH17-mGFP fusion protein …", "test": "flow cytometry on HEK293T mouse CDH17mGFP mass population, 20 µg/ml"}, "[20]": {"biological_target": "T3, human CDH17-mGFP fusion protein …", "test": "flow cytometry (iQue) on HEK293T CDH17 mGFP clone G11 (human), 1 µg Ab"}, "[21]": {"biological_target": "T3, human CDH17-mGFP fusion protein …", "test": "flow cytometry (iQue) on HEK293T CDH17 mGFP clone G11 (human), 0.2 µg Ab"}}}
{"binder": "B1", "values": [{"measurement": "ADC Binding Activity by Flow Cytometry", "setting": "[1]", "result": 35100}]}
{"binder": "B2", "values": [{"measurement": "FL4-H", "setting": "[2]", "result": 864000}]}
{"binder": "B3", "values": [{"measurement": "FL4-H", "setting": "[2]", "result": "2.21e+06"}]}
{"binder": "B4", "values": [{"measurement": "Kd", "setting": "[3]", "result": 0.532, "unit": "nM"}, {"measurement": "EC50", "setting": "[4]", "result": 0.73, "unit": "nM"}, {"measurement": "Antibody Binding Activity by Flow iQue", "setting": "[5]", "result": "2.66e+06"}, {"measurement": "Antibody Binding Activity by Flow iQue", "setting": "[6]", "result": 74900}, {"measurement": "Kd", "setting": "[7]", "result": 0.817, "unit": "nM"}, {"measurement": "Antibody Binding Activity by Flow iQue", "setting": "[8]", "result": "2.86e+06"}, {"measurement": "Antibody Binding Activity by Flow iQue", "setting": "[9]", "result": 120000}, {"measurement": "Antibody Binding Activity by Flow Cytometry", "setting": "[10]", "result": 47200}, {"measurement": "Antibody Binding Activity by Flow iQue", "setting": "[11]", "result": 95600}, {"measurement": "Antibody Binding Activity by Flow iQue", "setting": "[12]", "result": 21400}, {"measurement": "Cross Reactivity by Flow", "setting": "[13]", "result": 50500}, {"measurement": "binding result", "setting": "[14]", "result": "no binding (tested: 1 µg)"}, {"measurement": "binding result", "setting": "[15]", "result": "no binding (tested: 1 µg)"}, {"measurement": "Kd", "setting": "[16]", "result": "< 1", "unit": "nM"}, {"measurement": "Cross Reactivity by Flow", "setting": "[17]", "result": 2200}, {"measurement": "Kd", "setting": "[18]", "result": 0.817, "unit": "nM"}, {"measurement": "Cross Reactivity by Flow", "setting": "[19]", "result": 2510}, {"measurement": "Antibody Binding Activity by Flow iQue", "setting": "[20]", "result": 181000}, {"measurement": "Antibody Binding Activity by Flow iQue", "setting": "[21]", "result": 50500}]}
{"binder": "B5", "values": [{"measurement": "ADC Binding Activity by Flow Cytometry", "setting": "[1]", "result": 73500}]}
{"binder": "B6", "values": [{"measurement": "FL4-H", "setting": "[2]", "result": "2.05e+06"}]}
{"binder": "B7", "values": [{"measurement": "ADC Binding Activity by Flow Cytometry", "setting": "[1]", "result": 67400}]}
